Laboratory results from article doi:10.1101/2020.08.06.226779 (bioRxiv, 2020).

Biological target: the molecule itself
Assay: SEC-MALS

B1: recombinant BCAS0292 (natural protein)
chain: MSGVRCDGLAIVDAVTLLSAYPDASRDADAPTVIDGRHIYVLRPGDAGQVGHNDNRLFAGLSPGDQLHLRETALALRAEVTVLFIRFALKDAGIVAPIEAEIRDAATPVPDGDDLLHPSCRPMKDHFWRSEVLAPGITTCTADFAVLDRDGAVSGYFRWETAIEIAGSRPDTKQPGVEP
With B1 the “stoichiometry N” value was 2.
